Publication PMC7876045

Biological target: RNAP sigma70 holoenzyme (Esigma70) (Escherichia coli) (UniProt P0A7Z4+P0A8V2+P0A8T7+P0A800+P00579)
Experiment: KMnO4 footprinting
Details: 40 mM Tris-HCl pH 8.0, 1 mM DTT, 0.1 mg/ml BSA, 10 mM MgCl2, 50 mM KCl, 37 C (transcription buffer); 150 nM Esigma70, sample mixed 1:1 with 20 mM KMnO4 for …

| Sequence | binding |
| --- | --- |
| ACCTCGGTATGCCTTGTGACTGGCTTGACAAGCTTTTCCTCAGCTCCGTAAACTCCTTTCAGTGGGAAATTGTGGGGCAAAGTGGGAATAAGGGGTGAGGCTGGCATGTTCCGGGGAGCAA (double strand) [mraZ promoter (G1p) permanganate template] | binds |
| ATCGCCAGCGCGCGATGATGTTCCGAAGACTATAAGGCATGTTATAGTCTGGATTATATTGAGGCAAGTCACCCTCCCATTTATTCAGAGTAAAAGTCTATTCTGTGATAAATGGC (double strand) [minC promoter (G1d) permanganate template] | binds |
